In assay [1] the target is T1, cynomolgus Trop-2-His protein (cynomolgus, UniProt P09758 27-274 (human entry)).
T1 construct: also called cynmolgus Trop-His; Kactus Cat #TRP-CM121; not shown: His tag
T1 chain: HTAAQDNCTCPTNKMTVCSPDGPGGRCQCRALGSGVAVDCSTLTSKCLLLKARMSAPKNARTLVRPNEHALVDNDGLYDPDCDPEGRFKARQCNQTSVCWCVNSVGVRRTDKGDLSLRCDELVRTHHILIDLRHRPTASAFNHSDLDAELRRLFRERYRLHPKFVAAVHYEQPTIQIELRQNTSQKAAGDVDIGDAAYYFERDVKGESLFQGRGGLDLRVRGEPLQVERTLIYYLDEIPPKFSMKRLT
As to the kind of experiment: BLI (Gator Prime), LEM supernatant Ab on HFC probe. How it is done: (§1) After three times of regeneration and neutralization of HFC probe (Gator, Cat #160003), LEM transfection supernatant samples to be tested in K buffer was diluted 1:1 in K buffer and immobilized onto HFC probe. […] The association and dissociation of human or cynomolgus Trop-2-His antigen from antibody was measured on BLI machine Gator Prime. Affinity was calculated using Gator Bio analysis software. Blank control was used for reference subtraction. 1 μg/ml of Sacituzumab govitecan was used as positive control.
(§2) Table 23 below summarizes the binding affinity of exemplary anti-Trop-2 antibodies in LEM transfection supernatant samples to human and cynomolgus Trop-2 using Gator.

Another assay deals with T2, human Trop-2-His protein (human, UniProt P09758 27-274).
T2 construct: extracellular domain; Assay paragraphs say only 'Trop-2-His'; also called hTrop-2; Kactus Cat #TRP-HM121; not shown: His tag
T2 sequence (looked up): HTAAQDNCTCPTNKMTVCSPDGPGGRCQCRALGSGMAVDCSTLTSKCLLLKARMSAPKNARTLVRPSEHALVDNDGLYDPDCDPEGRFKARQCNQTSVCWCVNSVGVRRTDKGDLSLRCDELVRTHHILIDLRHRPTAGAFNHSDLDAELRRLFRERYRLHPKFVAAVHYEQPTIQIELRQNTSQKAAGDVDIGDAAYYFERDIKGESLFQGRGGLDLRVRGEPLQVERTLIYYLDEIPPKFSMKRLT
Put plainly: BLI (Gator Prime), LEM supernatant Ab on HFC probe. How it is done: as §1, §2

B1: 5D4 (antibody, V domains shown)
VH: QQLEESGGGLVKPEGSLTLTCKGSGFDFSGTYWMWWVRQAPGKGLEWIACIYVGSGSSTYYASWAKGRFTISSTSSTAVTLQATSLTAADTATYFCARGATNNVFMNYFNLWGPGTLVTVSS
VL: FEMTQTPSSVSEPVGGTVTIKCQASEDISSNLGWYQQKPGQPPKLLIYGASTLASGVPSRFKGSGSGTEFTLTISDLECADAATYYCQTSYYIDDGVNGFGGGTEVVVK
notes: Rabbit-derived clone; LEM construct: VH + rabbit IgG CH1 + human IgG1 CH2-CH3
Turning to B1, in assay [1], binding was put at a Kd of 0.256 nM, the koff came to 0.0001 s⁻¹ and the kon is 577000 M⁻¹ s⁻¹. Further, in the assay with human Trop-2-His protein, the affinity, expressed as Kd, was 0.28 nM; the koff came to 0.0001 s⁻¹; the kon is 358000 M⁻¹ s⁻¹.

B2: 1D10 (antibody, V domains shown)
VH: QEQLKESGGGLVQPGGSLTLSCKASGFDFNYYGVSWVRQAPGKGLEWIGYIYPAYHNTYYATWVNGRFTISSHNAQNTLYLQLNTLTAADTATYFCARDAGSTDYNLNLWGPGTLVTVSS
VL: DVVMTQTPASVEVAVGGTVTIKCQASEDIESYLAWYQQKPGQPPRLLIYEASKLASGVSSRFSGGGYGTDFTLTISGVECADAATYYCHQALTIGNVDNPFGGGGEVVVK
notes: as for B1
In assay [1], B2 returned a Kd of 0.361 nM, a koff of 0.00027 s⁻¹ and a kon of 688000 M⁻¹ s⁻¹. In the assay with human Trop-2-His protein, this molecule registered a Kd of 0.53 nM, a dissociation rate constant (koff) of 0.00027 s⁻¹ and a kon of 518000 M⁻¹ s⁻¹.

B3: 65D5 (antibody, V domains shown)
VH: QEQLKESGGGLVQPGGSLKLSCKASGFDFNAYGVSWVRQAPGKGLEWIAYIYPAFHNTYYATWVNGRFTISSHNAQNTLYLQLNTLTAADTATYFCARDAGTTDYNFNLWGPGTLVTVSS
VL: DIVMTQTPASVSEPVGGTVTIKCQASQSISSYLAWYQQKPGQPPKLLIYEATKLTSGVSSRFSGSGYGTEFTLTISGVECADAATYYCQQALTVGDVDNPFGGGSEVVVK
notes: as for B1
In assay [1], B3 came in with a Kd of 0.628 nM, a dissociation rate constant (koff) of 0.00061 s⁻¹ and a kon of 972000 M⁻¹ s⁻¹. For the same molecule, in the assay with human Trop-2-His protein, binding was characterised by a dissociation constant (Kd) of 0.656 nM, the koff was determined as 0.00046 s⁻¹ and the kon was found to be 706000 M⁻¹ s⁻¹.

B4: 66A1 (antibody, V domains shown)
VH: QEQLKESGGGLVQPGGSLKLSCKASGFDFNNYGVSWVRQAPGKGLEWIAYIYPAFHNTYYASWVNGRFTISSHNAQNTLYLQLNSLTAADTATYFCARDAGGTDYAYNLWGPGTLVTVSS
VL: DVVMTQTPASVEAAVGGTVSINCQASEDIESYLAWYQQKPGQPPKLLIYKASTLASGVSSRFKGSGSGKQFTLTISGVECADAATYYCQQVLTIGNVDNPFGGGSEVVVK
notes: as for B1
With B4, in assay [1], binding was characterised by a dissociation constant (Kd) of 0.367 nM, the off-rate (koff) turned out to be 0.00032 s⁻¹ and the kon turned out to be 869000 M⁻¹ s⁻¹. In the assay with human Trop-2-His protein, the Kd turned out to be 0.426 nM, the koff worked out at 0.00028 s⁻¹ and the kon was determined as 656000 M⁻¹ s⁻¹.

B5: 74F11/15F5 (antibody, human IgG1, V domains shown)
VH: QEQLKESGGGLVQPGGSLKLSCKASGFDFNNYGMSWVRQAPGKGLEWIAYIYPAFHNTYYANWVNGRFTISSDNAQNTVDLQLNSLTAADTATYFCARDAGSTDYNFNLWGPGTLVTVSS
VL: DVVMTQTPASVEAAVGGTVTIKCQASEDIERYLAWYQQKPGQPPKLLIYEASKLPSGVSSRFSGSGYGTEFTLTISGVECADAATYYCQQALTIGYVDNPFGGGSEVVVK
notes: LEM construct: VH + rabbit IgG CH1 + human IgG1 CH2-CH3
With B5, in assay [1], the Kd stood at 0.264 nM, the koff worked out at 0.00017 s⁻¹ and the on-rate constant (kon) amounted to 758000 M⁻¹ s⁻¹. Moreover, in the assay with human Trop-2-His protein, binding was put at a Kd of 0.323 nM, the koff turned out to be 0.00017 s⁻¹ and the kon was found to be 526000 M⁻¹ s⁻¹.

B6: 63H3 (antibody, V domains shown)
VH: QEQLKESGGGLVQPGGSLKLSCKASGFDFNSYGVSWVRQAPGKGLEWIAYIYPAFHNAYYANWVNGRFTISSDNAQNTVDLQLNSLTAADTATYFCARDAGGTDYNYNLWGPGTLVTVSS
VL: DVVMTQTPASVEVAVGGTVTLKCQASEDIESYSAWYQQKPGQPPNLLIYEASKLASGVSSRFSGSGYGTEFTLTISGVECADAATYYCQQALTIGNVDNPFGGGSEVVVR
notes: as for B1
Consider B6, for which, in assay [1], binding was put at a Kd of 0.218 nM, the koff came to 0.00016 s⁻¹ and the on-rate (kon) is 740000 M⁻¹ s⁻¹. In the assay with human Trop-2-His protein, the Kd was 0.22 nM, the koff turned out to be 0.00016 s⁻¹ and the kon was found to be 704000 M⁻¹ s⁻¹.

B7: 72F12 (antibody, V domains shown)
VH: QEQLKESGGGLVQPGGSLKLSCKASGFDFNNYGVSWVRQAPGKGLEWIAYIYPAFHNTYYATWVNGRFTISSHNAQNTLYLQLNSLTAADTATYFCARDAGSVDYNFNLWGPGTLVTVSS
VL: DVVMTQTPASVEVAVGGTVTIKCQASKNIDSNLAWYQQKPGQPPKQLIYAASTLASGVSSRFSGSGYGAEFTLTISGVECADAATYYCQQALTIGNVDNPFGGGSEVVVK
notes: as for B1
Regarding B7, in assay [1], the Kd amounted to 0.526 nM, the koff turned out to be 0.00047 s⁻¹ and the kon came to 898000 M⁻¹ s⁻¹. In the assay with human Trop-2-His protein, this molecule gave a Kd of 0.574 nM, a koff of 0.00038 s⁻¹ and a kon of 666000 M⁻¹ s⁻¹.

B8: 62E3 (antibody, V domains shown)
VH: QEQLKESGGGLVQPGGSLKLSCKASGFDFNEYGVSWVRQAPGKGLEWIAYIYPAFHNTYYATWVNGRFTISSHNAQNTLYLQLNTLTAADTATYFCARDAGTTDYNFNLWGPGTLVTVSS
VL: DVVMTQTASPVSAAVGGTVTIKCQASEDIESYLAWYQQKPGQPPKLLIYEASKLASGVSSRFSGSGYGTEFTLTISGVECADAATYYCQQALTIGNVDNPFGGGSEVVVK
notes: as for B1
In assay [1], B8 gave a Kd of 0.685 nM, a koff of 0.00045 s⁻¹ and a kon of 651000 M⁻¹ s⁻¹. Further, in the assay with human Trop-2-His protein, the Kd was determined as 0.623 nM, the koff was 0.00038 s⁻¹ and the kon was 607000 M⁻¹ s⁻¹.

B9: 9F7 (antibody, V domains shown)
VH: QEQLKESGGGLVQPGGSLTLSCKASGFDFNNYGVSWVRQAPGKGLEWIGYIYPAYHNTYYATWVNGRFTISSHNAQNTLYLQLNTLTAADTATYFCARDTGSTDYNFNLWGPGTLVTVSS
VL: DVVMTQTPASVEVAVGGTVTIKCQASEDIESYLAWYQQKPGQPPKLLIYEASKLASGVSSRFSGGGYGTEFTLTISGVECADAATYYCQQALTVGNVDNPFGGGSEVVVK
notes: as for B1
B9: in assay [1], binding was characterised by a dissociation constant (Kd) of 0.145 nM, the koff was ~0.000112 s⁻¹ and the kon amounted to 774000 M⁻¹ s⁻¹. For the same molecule, in the assay with human Trop-2-His protein, the Kd is 0.11 nM, the koff amounted to 5.8e-05 s⁻¹ and the kon is 530000 M⁻¹ s⁻¹.

B10: 9D7 (antibody, V domains shown)
VH: QSLEESGGDLVQPGASLTLTCKASGFDLNNYSILWVRQAPGKGLEWIGCIYISGGSTYYANWAKGRFAISKTSSTTVTLQMTSLTAADTATYFCARDDGTASYYLNLWGPGTLVTVSS
VL: YDMTQTPASVSEPVGGTVTIKCQASEDIYKLLAWYQQKPGQPPKLLIYAASDLESGVPSRFKGRGSGTDYTLTISDLECADAATYYCQQAYTIGNIDNSFGGGTEVVVK
notes: as for B1
In the case of B10, in assay [1], the Kd amounted to 0.117 nM, the koff worked out at 3.9e-05 s⁻¹ and the kon amounted to 528000 M⁻¹ s⁻¹. In the assay with human Trop-2-His protein, this molecule showed a Kd of 0.113 nM, a koff of 3.9e-05 s⁻¹ and a kon of 342000 M⁻¹ s⁻¹.

B11: 10A9 (antibody, V domains shown)
VH: QSLEESGGDLVQPGASLTLTCKASGFDLNNYAMLWVRQAPGKGLEWIGCIYISGGTTYFASWATGRFAISKTSSTTVTLQMTSLTAADTATYFCARDDGTTSYYLNLWGPGTLVTVSS
VL: YDMTQTPASVSAAVGGTVTIKCQASEDIYSLLAWYQQKPGQPPKLLIYGASNLESGVPSRFKGSGSGTEYTLTISDLECDDAATYYCQQAYTIGNIDNAFGGGTEVVVK
notes: as for B1
For B11, in assay [1], the Kd stood at 0.108 nM, the koff is 5.3e-05 s⁻¹ and the kon amounted to 569000 M⁻¹ s⁻¹. In the assay with human Trop-2-His protein, this molecule yielded a Kd of 0.142 nM, a koff of 5.3e-05 s⁻¹ and a kon of 372000 M⁻¹ s⁻¹.

The values are drawn from US20250206841A1 (ADEPT THERAPEUTICS, published 2025).
